Experiment [1] addresses human RON (recepteur d'origine nantais, MST1R), full length, expressed on cells (UniProt Q04912 25-1400). Put plainly: FACS. For orientation: A flow cytometer gives signals particle by particle.
In experiment [2] the target is T1, soluble cynomolgus (Macaca fascicularis) RON protein (cynomolgus (Macaca fascicularis), UniProt A0A2K5VT07 25-571).
T1 chain: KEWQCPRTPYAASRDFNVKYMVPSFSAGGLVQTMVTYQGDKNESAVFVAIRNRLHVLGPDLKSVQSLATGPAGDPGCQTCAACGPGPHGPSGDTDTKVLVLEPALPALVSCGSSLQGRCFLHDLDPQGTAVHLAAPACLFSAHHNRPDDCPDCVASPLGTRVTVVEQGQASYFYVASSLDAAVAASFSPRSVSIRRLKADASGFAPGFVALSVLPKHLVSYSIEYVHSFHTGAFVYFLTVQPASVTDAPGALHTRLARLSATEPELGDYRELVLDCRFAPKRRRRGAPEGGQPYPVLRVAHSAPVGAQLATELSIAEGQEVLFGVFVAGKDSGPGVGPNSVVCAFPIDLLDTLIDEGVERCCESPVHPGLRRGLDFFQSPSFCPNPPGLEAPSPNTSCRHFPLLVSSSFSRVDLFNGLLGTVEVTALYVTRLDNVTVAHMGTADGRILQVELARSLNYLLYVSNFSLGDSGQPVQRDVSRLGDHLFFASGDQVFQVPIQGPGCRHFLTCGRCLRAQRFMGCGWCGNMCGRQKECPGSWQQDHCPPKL
The experiment is described as follows: ELISA; 4-P fit C. A general note: In an ELISA, binding on a coated surface is turned into a signal by an enzyme label.

Experiment [3] concerns the target T2, soluble human RON protein (R&D Systems, catalog 1947) (UniProt Q04912 25-571). The experiment is described as follows: ELISA; 4-P fit C.
Experiment [4] has as its target T2, soluble human RON protein (R&D Systems, …). Put plainly: ELISA.
In experiment [5] the target is T1, soluble cynomolgus (Macaca …). Put plainly: ELISA; 4-P fit C.
Experiment [6] addresses T2, soluble human RON protein (R&D Systems, …). The experiment is described as follows: ELISA; 4-P fit C. This is another data set of the same source.

These results are taken from patent publication US20090226442A1 (published 2009).

What is called EC50 is the midpoint of the concentration-response curve.

Read-outs that look alike come from different tables or passages of the source.

Chain of human RON (recepteur d'origine nantais, MST1R), full length, expressed on cells (Q04912 25-1400): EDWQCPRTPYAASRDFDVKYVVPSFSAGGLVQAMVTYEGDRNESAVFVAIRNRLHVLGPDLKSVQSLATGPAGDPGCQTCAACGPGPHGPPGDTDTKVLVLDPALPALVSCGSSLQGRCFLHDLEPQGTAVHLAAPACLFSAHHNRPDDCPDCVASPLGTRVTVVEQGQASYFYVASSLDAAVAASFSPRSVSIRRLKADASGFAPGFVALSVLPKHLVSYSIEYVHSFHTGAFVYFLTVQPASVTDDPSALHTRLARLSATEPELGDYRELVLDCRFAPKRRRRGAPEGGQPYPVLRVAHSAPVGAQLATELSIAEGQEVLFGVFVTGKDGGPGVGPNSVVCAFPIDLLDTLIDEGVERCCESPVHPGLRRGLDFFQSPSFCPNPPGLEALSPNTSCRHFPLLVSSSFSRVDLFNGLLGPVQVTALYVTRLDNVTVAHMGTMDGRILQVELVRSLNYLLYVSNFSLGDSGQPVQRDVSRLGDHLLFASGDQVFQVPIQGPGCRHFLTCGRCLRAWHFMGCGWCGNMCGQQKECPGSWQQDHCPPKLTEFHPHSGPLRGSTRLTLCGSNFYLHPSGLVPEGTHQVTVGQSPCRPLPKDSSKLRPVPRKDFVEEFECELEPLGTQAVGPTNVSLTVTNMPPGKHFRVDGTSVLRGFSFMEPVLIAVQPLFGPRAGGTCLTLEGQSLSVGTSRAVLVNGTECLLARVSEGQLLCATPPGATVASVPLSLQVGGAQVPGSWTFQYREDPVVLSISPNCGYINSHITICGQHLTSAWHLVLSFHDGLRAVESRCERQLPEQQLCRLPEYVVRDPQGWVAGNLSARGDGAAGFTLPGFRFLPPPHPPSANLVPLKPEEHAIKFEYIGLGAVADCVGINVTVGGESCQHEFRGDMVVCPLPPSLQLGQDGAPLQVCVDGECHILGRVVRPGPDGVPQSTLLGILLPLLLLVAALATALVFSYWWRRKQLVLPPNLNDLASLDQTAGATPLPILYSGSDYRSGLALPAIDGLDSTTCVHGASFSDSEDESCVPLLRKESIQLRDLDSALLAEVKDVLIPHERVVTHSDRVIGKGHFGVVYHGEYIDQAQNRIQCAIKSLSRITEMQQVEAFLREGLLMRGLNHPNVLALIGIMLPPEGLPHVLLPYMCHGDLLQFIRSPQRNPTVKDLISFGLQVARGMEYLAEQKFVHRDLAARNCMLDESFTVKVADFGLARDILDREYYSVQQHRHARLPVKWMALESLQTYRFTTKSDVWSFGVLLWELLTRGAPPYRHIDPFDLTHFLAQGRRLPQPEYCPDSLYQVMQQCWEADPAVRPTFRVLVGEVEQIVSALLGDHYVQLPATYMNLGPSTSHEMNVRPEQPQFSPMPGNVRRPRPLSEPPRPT
T2 sequence (Q04912 25-571): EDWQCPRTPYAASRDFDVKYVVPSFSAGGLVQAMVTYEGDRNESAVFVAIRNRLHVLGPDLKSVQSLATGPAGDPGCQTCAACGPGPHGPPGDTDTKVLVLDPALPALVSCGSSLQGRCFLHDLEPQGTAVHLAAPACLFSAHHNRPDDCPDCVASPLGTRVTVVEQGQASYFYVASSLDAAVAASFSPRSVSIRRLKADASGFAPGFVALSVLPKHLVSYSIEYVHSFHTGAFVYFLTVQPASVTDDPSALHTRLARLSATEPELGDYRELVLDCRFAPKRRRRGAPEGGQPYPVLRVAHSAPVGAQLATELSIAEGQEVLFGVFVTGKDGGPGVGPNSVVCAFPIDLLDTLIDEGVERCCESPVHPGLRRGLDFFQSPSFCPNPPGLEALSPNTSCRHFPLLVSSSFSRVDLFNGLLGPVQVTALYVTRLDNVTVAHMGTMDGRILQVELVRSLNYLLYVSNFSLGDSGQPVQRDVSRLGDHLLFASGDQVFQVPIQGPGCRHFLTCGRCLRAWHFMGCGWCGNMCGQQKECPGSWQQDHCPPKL

B1: 1P5B10 murine monoclonal anti-RON antibody (antibody, V domains shown)
VH: EVQLQQSGPELVKPGASMKISCRAAGFSFTGYTMNWVKQSHGKSLEWIGLINLNNGGTSHNQKFKGKATLTVDKSSSTAYMELLSLTSEDSAVYYCARWLRRGGYAMDYWGQGISVTVSS
VL: DILLTQSPAILSVSPGERVSFSCRASQNIGTSIHWYQQRTNGSPRLLIKYASESISGIPSRFSGSGSGTDFTLSINSVESEDIADYYCQQSDSWPLTFGAGTKLELK
For B1, the EC50 in experiment [1] was 0.051 µg/mL; in experiment [2], 2 ng/mL; in experiment [3], 1 ng/mL; in experiment [4], 0.013 µg/mL.

B2: 1P4A12 murine monoclonal anti-RON antibody (antibody, V domains shown)
VH: EVQLQQSGPELVKPGASMKISCKASGYSFTGYTMNWVKQSHGKKLEWIGLINPYNGGTIYNQKFKGKATLTVDKSSSTAYMELLSLTSEDSAVYYCARWLRRGGYAMDYWGQGASVTVSS
VL: DILLTQSPAILSVSPGERVSFSCRASQSIGTSIHWYQQRTNGSPRLLIKFASESISGIPSRFSGSGSGTDFTLSINSVESEDIADYYCQQSDSWPLTFGAGTKLEVK
Regarding B2, the EC50 in experiment [1] came out at 0.01 µg/mL; in experiment [2], 5 ng/mL; in experiment [3] it was 2 ng/mL; in experiment [4], 0.016 µg/mL.

B3: human macrophage stimulating protein (MSP) (R&D Systems cat. #4306-MS) (ligand)
chain: QRSPLNDFQVLRGTELQHLLHAVVPGPWQEDVADAEECAGRCGPLMDCRAFHYNVSSHGCQLLPWTQHSPHTRLRRSGRCDLFQKKDYVRTCIMNNGVGYRGTMATTVGGLPCQAWSHKFPNDHKYTPTLRNGLEENFCRNPDGDPGGPWCYTTDPAVRFQSCGIKSCREAACVWCNGEEYRGAVDRTESGRECQRWDLQHPHQHPFEPGKFLDQGLDDNYCRNPDGSERPWCYTTDPQIEREFCDLPRCGSEAQPRQEATTVSCFRGKGEGYRGTANTTTAGVPCQRWDAQIPHQHRFTPEKYACKDLRENFCRNPDGSEAPWCFTLRPGMRAAFCYQIRRCTDDVRPQDCYHGAGEQYRGTVSKTRKGVQCQRWSAETPHKPQFTFTSEPHAQLEENFCRNPDGDSHGPWCYTMDPRTPFDYCALRRCADDQPPSILDPPDQVQFEKCGKRVDRLDQRRSKLRVVGGHPGNSPWTVSLRNRQGQHFCGGSLVKEQWILTARQCFSSCHMPLTGYEVWLGTLFQNPQHGEPSLQRVPVAKMVCGPSGSQLVLLKLERSVTLNQRVALICLPPEWYVVPPGTKCEIAGWGETKGTGNDTVLNVALLNVISNQECNIKHRGRVRESEMCTEGLLAPVGACEGDYGGPLACFTHNCWVLEGIIIPNRVCARSRWPAVFTRVSVFVDWIHKVMRLG
As for B3, the EC50 was 0.038 µg/mL in experiment [5] and 0.03 µg/mL in experiment [6].

B4: 1P2E7 murine monoclonal anti-RON antibody (antibody, V domains shown)
VH: DVQLQESGPGLVKPSQSLSLTCTVTGDSITSDYAWNWIRQFPGNKLEWMGYISYSGSTSYNPSLKSRFSITRDTSKNQFFLQLNSVTTEDSATYYCARGGFYYRYAGPGFAYWGQGTLVTVSA
VL: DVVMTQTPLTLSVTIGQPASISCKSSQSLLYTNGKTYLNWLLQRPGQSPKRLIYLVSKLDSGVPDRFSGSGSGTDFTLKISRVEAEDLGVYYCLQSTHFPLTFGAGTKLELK
As to B4, the EC50 in experiment [1] was 0.013 µg/mL; in experiment [2], 2 ng/mL; in experiment [3], 0.736 ng/mL; in experiment [4], 0.018 µg/mL.

B5: 1P3B2 murine monoclonal anti-RON antibody (antibody, V domains shown)
VH: EVQLQQSGPELEKPGASVKISCKASGYSFTGYNMNWVKQSNGESLEWIGDIDPYYGGTRYNQKFKGKATLTVDKSSSTAYMQLKSLTSEDSAVYYCAREGRGFAYWGQGTLVTVSA
VL: DIQMTQSPASLSASVGETVTITCRASENIYSYLAWYQKKQGKSPQLLVYNAKTSVEGVPSRFSGSGSGIQFSLKINSLQPEDFGSYYCHCQHHYGTLPTFGGGTKLEIK
For the molecule B5, the EC50 in experiment [1] stood at 0.006 µg/mL; in experiment [2] it was 10 ng/mL; in experiment [4] it was 0.011 µg/mL.

B6: 1P4A3 murine monoclonal anti-RON antibody (antibody, V domains shown)
VH: EVQLQQSGPELEKPGASVMISCKASGYSFTGYNMNWVKQSTGKSLEWIGDIDPYYDGTRYNQKFKGKATLTADKSSSTAYMQLKSLTSEDSAVYYCTREGRGFAYWGQGTLVTVSA
VL: DIQMTQSPASLSASVGETVTITCRASENIYSYLAWYQQKQGKSPQLLVYNAKTLAGGVPSRFSGSGSGTQFSLKINSLQPEDFGSYYCQHYYGTPLTFGAGTKLELK
As for B6, the EC50 in experiment [1] was 0.011 µg/mL; in experiment [2], 3 ng/mL; in experiment [3], 3 ng/mL; in experiment [4] it was 0.018 µg/mL.
